From paper PMC7811519, “Unusual DNA-binding properties of the Arabidopsis thaliana WRKY50 transcription factor at target gene promoters”
Numbering of substitutions follows the chain as printed.

B1: S21mut1 (dsDNA)
DNA 1: TTTATGTCCAGTATTTGTCATATAG
DNA 2: CTATATGACAAATACTGGACATAAA
B2: S21mut5 (dsDNA)
DNA 1: TTTATGTTTGACTCCCGTCATATAG
DNA 2: CTATATGACGGGAGTCAAACATAAA
B3: S21mut3 (dsDNA)
DNA 1: TTTATGTCCAGTATTTACTGTATAG
DNA 2: CTATACAGTAAATACTGGACATAAA
B4: S21mut2 (dsDNA)
DNA 1: TTTATGTTTGACTTTTACTGTATAG
DNA 2: CTATACAGTAAAAGTCAAACATAAA
B5: S21mut4 (dsDNA)
DNA 1: TTTATGTTTAGTCCCTGTCATATAG
DNA 2: CTATATGACAGGGACTAAACATAAA
B6: S22mut2 (dsDNA)
DNA 1: GAGAGAGATAGTCCAGTCTTTTGACTGAAGAACGA
DNA 2: TCGTTCTTCAGTCAAAAGACTGGACTATCTCTCTC
B7: S22mut4 (dsDNA)
DNA 1: GAGAGAGATAGTTTAGTCCCCCGACTGAAGAACGA
DNA 2: TCGTTCTTCAGTCGGGGGACTAAACTATCTCTCTC
B8: S22mut3 (dsDNA)
DNA 1: GAGAGAGATAGTCCAGTCTTCCAGTCGAAGAACGA
DNA 2: TCGTTCTTCGACTGGAAGACTGGACTATCTCTCTC
B9: S22mut5 (dsDNA)
DNA 1: GAGAGAGATAGTTTGACTCCTTGACTGAAGAACGA
DNA 2: TCGTTCTTCAGTCAAGGAGTCAAACTATCTCTCTC
B10: S15mut13 (dsDNA)
DNA 1: AGAGTCCCCCACCAGTTGAGTCCCAAAGCCACCAA
DNA 2: TTGGTGGCTTTGGGACTCAACTGGTGGGGGACTCT
B11: S15mut4 (dsDNA)
DNA 1: AGGACTTTTCACCAGTTGGACTTTGGGATTGTTGG
DNA 2: CCAACAATCCCAAAGTCCAACTGGTGAAAAGTCCT
B12: S15mut2 (dsDNA)
DNA 1: AGGACTTTTTCTTCACCAGACTTTGAAGCCACCAA
DNA 2: TTGGTGGCTTCAAAGTCTGGTGAAGAAAAAGTCCT
B13: S15mut3 (dsDNA)
DNA 1: AGGACTTTTCACCAGTTGAGTCCCAAAGCCACCAA
DNA 2: TTGGTGGCTTTGGGACTCAACTGGTGAAAAGTCCT
B14: S15mut1 (dsDNA)
DNA 1: AGAGTCCCCCACCAGTTGGACTTTGAAGCCACCAA
DNA 2: TTGGTGGCTTCAAAGTCCAACTGGTGGGGGACTCT
B15: S21 (CRM-ATBBE4) (dsDNA)
DNA 1: TTTATGTTTGACTTTTGTCATATAG
DNA 2: CTATATGACAAAAGTCAAACATAAA
B16: S15 (CRM-DJ1E) (dsDNA)
DNA 1: AGGACTTTTCACCAGTTGGACTTTGAAGCCACCAA
DNA 2: TTGGTGGCTTCAAAGTCCAACTGGTGAAAAGTCCT
B17: S24 (CRM1-WRKY30) (dsDNA)
DNA 1: TGGTCAGCATGTTGGACTTTCCAAATTCATTGACC
DNA 2: GGTCAATGAATTTGGAAAGTCCAACATGCTGACCA
B18: S22 (CRM2-WRKY30) (dsDNA)
DNA 1: B9 DNA 1 with C19T, C20T
DNA 2: B9 DNA 2 with G16A, G17A
B19: S24mut9 (dsDNA)
DNA 1: TGGTCAGCATGTTGGACTTTCCGGGCCTGTTGACC
DNA 2: GGTCAACAGGCCCGGAAAGTCCAACATGCTGACCA
B20: S24mut7 (dsDNA)
DNA 1: TAACTGGCATGTTAAGTCCCTTAAATTCACCAGTT
DNA 2: AACTGGTGAATTTAAGGGACTTAACATGCCAGTTA
B21: S24mut8 (dsDNA)
DNA 1: TGGTCAATGCACCGGACTTTCCAAATTCATTGACC
DNA 2: GGTCAATGAATTTGGAAAGTCCGGTGCATTGACCA
B22: S24mut2 (dsDNA)
DNA 1: TAACTGGCATGTTGGACTTTCCAAATTCACCAGTT
DNA 2: AACTGGTGAATTTGGAAAGTCCAACATGCCAGTTA

Each binder was assayed against T1, WRKY50BD (Arabidopsis thaliana Col-0, UniProt Q8VWQ5 86-173) (assay: competition EMSA; 100-fold excess vs S21 probe; EMSA with 4-5 ug recombinant protein, 32P probe, 100-fold molar excess competitor; binding buffer, salt, pH and temperature not given (cites Kanofsky et al. 2018)). Conditions: tags: His tag (pQE-30, Ni purification; tag not spelled out).
T1 sequence (Q8VWQ5 86-173): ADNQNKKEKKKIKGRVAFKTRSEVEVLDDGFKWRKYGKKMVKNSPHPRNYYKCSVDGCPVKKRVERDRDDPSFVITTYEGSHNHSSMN
B1: no binding.
B2: no binding.
B3: no binding.
B4: binds.
B5: no binding.

These binders were tested against T1, WRKY50BD (assay: competition EMSA; 100-fold excess vs S22 probe; EMSA with 4-5 ug recombinant protein, 32P probe, 100-fold molar excess competitor; binding buffer, salt, pH and temperature not given (cites Kanofsky et al. 2018)). Conditions: tags: His tag (pQE-30, Ni purification; tag not spelled out).
B6: no binding.
B7: no binding.
B8: no binding.
B9: no binding.

What follows are binders tested against T1, WRKY50BD (assay: competition EMSA; 100-fold excess vs S15 probe; EMSA with 4-5 ug recombinant protein, 32P probe, 100-fold molar excess competitor; binding buffer, salt, pH and temperature not given (cites Kanofsky et al. 2018)). Conditions: tags: His tag (pQE-30, Ni purification; tag not spelled out).
B10: no binding.
B11: binds.
B12: binds.
B13: binds.
B14: binds.

Each binder was assayed against WRKY50 full length (Arabidopsis thaliana Col-0, UniProt Q8VWQ5 1-173) (assay: EMSA; EMSA with 4-5 ug recombinant protein, 32P probe, 100-fold molar excess competitor; binding buffer, salt, pH and temperature not given (cites Kanofsky et al. 2018)). Conditions: label: 32P end label (as probe).
Chain of WRKY50 full length (Q8VWQ5 whole entry): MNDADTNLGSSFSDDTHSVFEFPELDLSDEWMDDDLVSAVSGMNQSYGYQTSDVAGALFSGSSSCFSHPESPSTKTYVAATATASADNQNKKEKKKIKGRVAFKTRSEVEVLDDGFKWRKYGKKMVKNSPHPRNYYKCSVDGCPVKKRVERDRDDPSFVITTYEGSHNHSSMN
B15: no binding.

These binders were tested against T1, WRKY50BD in the same assay as above. Conditions: tags: His tag (pQE-30, Ni purification; tag not spelled out), label: 32P end label (as probe).
B16: binds.
B17: binds.
B15: binds.
B18: binds.

The binders below were run against T1, WRKY50BD (assay: competition EMSA; 100-fold excess vs S24 probe; EMSA with 4-5 ug recombinant protein, 32P probe, 100-fold molar excess competitor; binding buffer, salt, pH and temperature not given (cites Kanofsky et al. 2018)). Conditions: tags: His tag (pQE-30, Ni purification; tag not spelled out).
B19: binds.
B20: no binding.
B21: binds.
B22: binds.
